Reference: the Human Domainome abundance scans (Beltran et al. 2025)
± gives the uncertainty stated by the source.

B1: Storkhead-box protein 2, residues 64 to 141; numbered along this chain, Q9P2F5 (parent)
chain: SPISQSQFIPLGEILCLAISAMNSARKPVTQEALMEHLTTCFPGVPTPSQEILRHTLNTLVRERKIYPTPDGYFIVTP
B2: MEF2-activating motif and SAP domain-containing transcriptional regulator, residues 170 to 204; numbered along this chain, Q6ZN01 (parent)
chain: LKLEELTVSELRQQLRLRGLPVSGTKSMLLERMRG

Variants of: B1
Assay: abundance fitness (aPCA) (normalised: wild type 0, dead -1); higher = more abundant; growth selection in yeast, the domain comes from the species named
Conditions: Homo sapiens

Abundance fitness: each site, then its substitutions
T77: Q -0.099 ± 0.078; M -0.164 ± 0.12; P -0.003 ± 0.088; F -0.073 ± 0.076; I -0.261 ± 0.082; W -0.111 ± 0.049; L -0.072 ± 0.066; E 0.034 ± 0.088; Y -0.084 ± 0.071; C 0.04 ± 0.072; G -0.057 ± 0.048; S 0.024 ± 0.07; N 0.059 ± 0.085; R 0.09 ± 0.048; V -0.065 ± 0.046; A -0.019 ± 0.057; D 0.077 ± 0.06
G72: V -0.568 ± 0.051; I -0.613 ± 0.17; T -0.132 ± 0.095; Q -0.034 ± 0.05; K -0.272 ± 0.14; Y -0.527 ± 0.23; A -0.304 ± 0.049; H -0.293 ± 0.073; L -0.461 ± 0.048; N -0.16 ± 0.19; E -0.078 ± 0.074; P -0.614 ± 0.059; M -0.209 ± 0.081; S -0.121 ± 0.04; W -0.662 ± 0.072; C -0.383 ± 0.077; R -0.32 ± 0.032; D -0.033 ± 0.11
P78: Y -0.098 ± 0.14; N -0.219 ± 0.18; G -0.239 ± 0.11; A -0.05 ± 0.064; S -0.038 ± 0.064; R 0.049 ± 0.082; H -0.191 ± 0.15; V -0.182 ± 0.09; F -0.37 ± 0.2; C 0.072 ± 0.2; E -0.44 ± 0.29; T -0.191 ± 0.085; K -0.086 ± 0.21; M -0.289 ± 0.12
R64: Y -0.174 ± 0.17; V -0.22 ± 0.049; W -0.211 ± 0.041
F74: M 0.073 ± 0.078; S 0.077 ± 0.057; T -0.031 ± 0.062; E -0.004 ± 0.086; A 0.095 ± 0.056; K 0.024 ± 0.053; H -0.248 ± 0.13; W -0.002 ± 0.067; N -0.361 ± 0.27; Y -0.065 ± 0.14; Q 0.006 ± 0.078; V -0.003 ± 0.051; L -0.046 ± 0.044; P -0.445 ± 0.064; I -0.001 ± 0.067; D -0.038 ± 0.11; G 0.052 ± 0.035; C -0.042 ± 0.074

Variants of: B2
Assay: as above
Conditions: Homo sapiens

Abundance fitness of substitutions, site by site:
L3: F 0.065 ± 0.16; G -0.304 ± 0.05; Y -0.556 ± 0.16; S -0.22 ± 0.088; A -0.275 ± 0.16; R -0.416 ± 0.064; C -1.03 ± 0.15; D -0.098 ± 0.12; P -0.14 ± 0.087; W -0.434 ± 0.089; E -0.249 ± 0.1; Q -0.296 ± 0.089; V -0.272 ± 0.097; K 0.017 ± 0.11
T7: M -0.598 ± 0.16; P -0.227 ± 0.15; W -0.518 ± 0.099; N -0.249 ± 0.4; A -0.519 ± 0.18; C -0.594 ± 0.17; V -1.29 ± 0.13; K -0.184 ± 0.097; Q -0.336 ± 0.07; G -0.199 ± 0.054; D -0.111 ± 0.2; L -0.768 ± 0.099; S -0.071 ± 0.065; H -0.48 ± 0.098; E -0.347 ± 0.072
L6: Q -0.236 ± 0.07; I -0.266 ± 0.13; R -0.458 ± 0.064; V -0.399 ± 0.078; T -0.632 ± 0.11; G -0.533 ± 0.059; D -0.356 ± 0.14; C -0.299 ± 0.19; E -0.369 ± 0.11; A -0.314 ± 0.067; N -0.166 ± 0.11; W -0.175 ± 0.072; Y -0.384 ± 0.12; H -0.434 ± 0.11
L1: F -0.19 ± 0.13; Y 0.02 ± 0.24; W -0.045 ± 0.11; K -0.05 ± 0.22; E 0.136 ± 0.086; G -0.364 ± 0.21; I 0.108 ± 0.073; N 0.092 ± 0.45; S -0.12 ± 0.068; V -0.134 ± 0.11; R -0.262 ± 0.14
E5: Y -0.424 ± 0.11; C -0.183 ± 0.18; P -0.335 ± 0.19; G -0.359 ± 0.1; A -0.218 ± 0.069; S -0.188 ± 0.074; W -0.776 ± 0.14; Q -0.306 ± 0.1; T -0.271 ± 0.11; R -0.239 ± 0.084; V -0.329 ± 0.088; L -0.548 ± 0.1
V8: C -0.486 ± 0.49; E 0.026 ± 0.072; H -0.486 ± 0.092; G -0.429 ± 0.06; D -0.38 ± 0.073; A 0.142 ± 0.093
K2: E 0.007 ± 0.067; R -0.042 ± 0.1; S -0.201 ± 0.11; P -0.572 ± 0.12; L -0.444 ± 0.08; D -0.496 ± 0.26; C -0.136 ± 0.07; W -0.159 ± 0.14; N -0.128 ± 0.17
E4: G -0.574 ± 0.055; F -0.679 ± 0.1; D -0.035 ± 0.11; V -1.08 ± 0.16; S -0.23 ± 0.11; M -0.41 ± 0.071; T -0.171 ± 0.061; I -0.464 ± 0.23; N -0.017 ± 0.21; L -0.919 ± 0.085; C -0.518 ± 0.14; Q -0.317 ± 0.16; A -0.667 ± 0.12; H -0.046 ± 0.14; Y -0.804 ± 0.18; P -0.394 ± 0.29
